According to patent US12686846B2, “Plant sweet and yeast MSF transporter capable of transporting different sugars simultaneously” (THE BOARD OF TRUSTEES OF THE UNIVERSITY OF ILLINOIS, priority 2020, dated 2026):
Several values for one entry are separate records, joined by “and”; a condition that tells them apart may be missing. Equal entries are not always repeated. Entries after “also recorded” stand apart in the source; their conditions may differ.

Key:
[1] = tested on: SR8D8 expressing transporter; experiment: Transporter screening for growth on glucose or xylose (Bioscreen C); assay type: cell-based, S. cerevisiae; settings: glucose or xylose containing medium, OD600
Protocol: ScGal2 expressing SR8D8 were used as a positive control (FIG. 3). Most of the AtSWEETs and putative oleaginous transporters expressing strains were not able to grow on glucose or xylose.
(§1) A xylose fermenting S. cerevisiae yeast (SR8) with HXT1-7Δ, GAL2Δ deletions was used for transporter screening and characterization (SR8D8). SR8D8 was grown in YPE medium/plate (10 g/L yeast extract, 20 g/L peptone, and 5 g/L ethanol). […] SRD8 strains transformed with plasmid containing KanMX marker conferring resistance to G418 (geneticin) were propagated on YPE supplemented with 200 μg/ml of geneticin. For growth and flask fermentation experiments all media was supplemented with 200 μg/ml of geneticin for plasmid maintenance. Biomass was calculated from the OD600 measured using a Biomate 5 UV-visible spectrophotometer (Fisher, NY, USA). All growth rates were measured using a Bioscreen C plate reader system (Growth Curves USA, Piscataway, NJ, USA). A 2 μL inoculum of fully grown culture was added into 200 μL YP (+200 μg/ml Geneticin) with varying concentrations of different sugars. A wide band filter (420-580 nm) was used to measure optical density. Bioscreen C values represent mean value from three biological replicates. In all cases, the Bioscreen C was set to maintain a temperature of 30° C. and high aeration through high continuous shaking.

[2] = tested on: SR8D8 expressing transporter; experiment: Mixed sugar fermentation at industrially relevant sugar concentrations; assay type: cell-based, S. cerevisiae; settings: 7% glucose and 4% xylose (70 g/L, 40 g/L)
Protocol: (§2) For flask fermentation, a single colony was inoculated to 5 or 25 mL YPE ([…], 1% w/v yeast extract, 2% peptone, 5% ethanol) supplemented with 200 μg/ml of geneticin to obtain seed cultures. […] Flask fermentations were maintained at 30° C. and 250 rpm.

[3] = tested on: SR8D8 expressing transporter; experiment: Sole glucose or xylose flask fermentation; assay type: cell-based, S. cerevisiae; settings: glucose or xylose conditions, YP medium
Protocol: as §2, §1

[4] = tested on: SR8D8 expressing transporter; experiment: Glucose and xylose mixed sugar flask fermentation (20 g/L each); assay type: cell-based, S. cerevisiae; settings: 20 g/L of glucose and xylose, YP medium
Protocol: as §2, §1

[5] = tested on: transporter-overexpressing SR8D8; experiment: Inhibition of xylose uptake by glucose; assay type: cell-based, S. cerevisiae; settings: 25 mM or 100 mM glucose
Protocol: SR8D8 containing the respective plasmid was grown on selective YPE medium to an OD600 of 1-1.5, harvested by centrifugation, and washed twice in ice-cold uptake buffer (100 mM potassium phosphate, pH 6.5). C14 labeled sugar uptake assay was done according to Boles and Oreb. Radioactivity was analyzed in a Beckman-Coulter LS6500 multi-purpose liquid scintillation counter (Beckman-Coulter, CA, USA).
Sugar solutions contained 0.135-0.608 μCi of D-[U-^14C]-glucose (290-300 mCi/mmol) or D-[1-^14C]-xylose (55 mCi/mmol) (PerkinElmer, MA, USA). Calculation of Km (Michaelis constant), Vmax (maximal initial uptake velocity), and K (inhibitor constant for competitive inhibition) was done by nonlinear regression analysis and global curve fitting in Prism 7 (GraphPad Software) with values of three independent measurements.

[6] = substrate: OC[C@H]1OC(O)[C@H](O)[C@@H](O)[C@@H]1O; experiment: cells, lysate or membranes; settings: other: initial glucose uptake (5 s), 30° C., pH 6.5, 0.2 to 100 mM glucose, ± SEM in Table 1

| Molecule | growth / transport capacity on glucose or xylose [1] | mixed sugar utilization profile at high sugar [2] | sole sugar fermentation performance [3] | glucose and xylose mixed sugar fermentation phenotype [4] | inhibition of xylose transport by glucose (in words) [5] | Km [6] | growth / transport capacity on glucose or xylose ([1]; listed as SWEET7) | glucose and xylose mixed sugar fermentation phenotype ([4]; listed as SWEET7) |
| --- | --- | --- | --- | --- | --- | --- | --- | --- |
| LST1_205437: Lipomyces starkeyi LST1 transporter polypeptide, SEQ ID NO:4, GenBank ODQ75362.1 (protein, Lipomyces starkeyi LST1_204537 transporter polypeptide) MGFLGFLNRSQASEPVEKESTATTPSEGRTPQRPLSPAVGVPLEQDFETQLSAKDAPLLAFILGGVASVGGFMFGYQTGQISGFLEMSDFKTRFAACNSQTGQCTFSAARQGTIVGLFSIGTLIGSLIAAPIADRIGRRLTISFWAFFFMIGTVLEISSSHVWVQFAMGRFVGGLGIGALSVVVPMYQSESTPRMIRGVIVSSYQLMVTLGIWLAYMINWGTESLQGSQSWRITNGMSFLWALVLGIAILGLPESPRYAYRVGREEEARKNMARLYKLSPNHPIINLEIQEIQEKLDAERVGGDHPWYEIFTGPRMLYRTILGMVLQAGQQLTGANYFFYYGTTVFSATGLSNSYVTQIILGSVNVGGTIAGLWLIENCGRRKALMGGAAWMFMCFMVFAFVGHFSLDHQNPEATPQAGAALVVFSCLFIIAFAMTWGPIVWAIVGELYPARYRATCMGLATSSNWLFNFLIGFFTTFITGDIDYLYGLVFAGCCFALFFIVYFFVIETKGRSLEEIDTMYVLHVNPINSAKWDSSQLMRDGDGLVNTDDLYLEAGGNRFAKDEHSAHEMIPSHDENAPGPSHTSHADIEKAESSGAESRDAL | substantial growth on xylose and glucose; also recorded: capable of sustaining an efficient growth on glucose or xylose | partial xylose and glucose co-consumption | enabled glucose and xylose fermentation, depleting all provided sugars | co-consumption of glucose and xylose; also recorded: partial co-fermentation; also recorded: simultaneously utilize glucose and xylose | partial inhibition of xylose uptake by glucose |  |  |  |
| Arabidopsis thaliana AtSWEET7 transporter, wild type (Table 2: SEQ ID NO: 3; FIG. 12: SEQ ID NO:2) (Arabidopsis thaliana) (protein) MVFAHLNLLRKIVGIIGNFIALCLFLSPTPTFVRIVKKKSVEEYSPIPYLATLINCLVWVLYGLPTVHPDSTLVITINGTGILIEIVFLTIFFVYCGRQKQRLIISAVIAAETAFIAILAVLVLTLQHTTEKRTMSVGIVCCVFNVMMYASPLSVMKMVIKTKSVEFMPFWLSVAGFLNAGVWTIYALMPFDPFMAIPNGIGCLFGLAQLILYGAYYKSTKRIMAERENQPGYVGLSSAIARTGSEKTANTNQEPNNV | substantial growth on xylose and glucose; also recorded: both glucose and xylose transport capacity | co-consumption of glucose and xylose even at higher glucose concentrations | enabled glucose and xylose fermentation, depleting all provided sugars | simultaneous co-consumption of glucose and xylose with almost the same rates of sugar consumption; also recorded: true co-fermentation phenotype | do not have any xylose transport inhibition in the presence of both 25 mM and 100 mM glucose | 75 mM and 74.1 ± 13.0 mM | capable of sustaining an efficient growth on glucose or xylose | simultaneously utilize glucose and xylose |
